Reference: US20090208538A1 (ROCKEFELLER UNIVERSITY, published 2009)

Experiments:
HLA-A*0201 [1] = molecular target: T1, HLA-A*0201 (human); assay: iTopia binding;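 further: each peptide tested for binding to HLA-A2 molecules immobilized on plates, using a commercial screening kit run per its supplied protocol and reagents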
T1 construct: also called HLA-A2.1; HLA A2.1

HLA-A*0201 [2] = molecular target: T1, HLA-A*0201; assay: iTopia affinity;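 further: peptide affinity for plate-bound HLA-A2 molecules (iTopia system), with ED50 derived from an eight-point serial peptide dilution series run under binding assay conditions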
HLA-A*0201 [3] = molecular target: T1, HLA-A*0201; assay: iTopia off-rate;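 further: Half-life of peptide complexes with plate-bound HLA-A2, peptides loaded 18 h at 21 C, washed, then held at 37 C over several time points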
HLA-A*0201 [4] = molecular target: T1, HLA-A*0201; assay: iTopia net score;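 further: combined score from peptide binding, ED₅₀ and half-life of peptide complexes with plate-bound HLA-A2 molecules, computed by a proprietary formula in iTopia software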

## SLTETIECL [cdr2 114-122 SLTETIECL]
HLA-A*0201 [1]
  binding vs positive control: > 30%
HLA-A*0201 [2]
  ED50: 4 µM
HLA-A*0201 [3]
  t1/2: 9.3
HLA-A*0201 [4]
  iScore: 0.518
